These results are taken from publication PMC10864275 (2024).

Experiment [1] deals with T1, avi-β1AR-W (turkey β1-adrenergic receptor, β1AR-MetΔ5 construct with N-terminal biotinylated avi-tag) (turkey, UniProt P07700 1-367, Δ3-32 | Δ244-271 | C358A^8.59 | C116L^3.27 | R68S^1.59 | E130W^3.41 | …, biotin on the avi-tag). The experiment is described as follows: BLI; isoprenaline. In general terms: In BLI a coated tip is dipped into the sample, and binding shifts an interference pattern.

Experiment [2] deals with T1, avi-β1AR-W (turkey β1-adrenergic …). The experiment is described as follows: BLI; isoprenaline. The source holds these as a separate data set.
The target in experiment [3] is T2, avi-β1AR-E (turkey β1-adrenergic receptor, β1AR-E construct with N-terminal biotinylated avi-tag) (turkey, UniProt P07700 1-367, Δ3-32 | Δ244-271 | C358A^8.59 | C116L^3.27 | R68S^1.59 | F327A^7.37 | …, biotin on the avi-tag). In words: BLI; isoprenaline.
Experiment [4] has as its target T1, avi-β1AR-W (turkey β1-adrenergic …). In words: BLI; isoprenaline. This is another data set of the same source.
Experiment [5] has as its target T2, avi-β1AR-E (turkey β1-adrenergic …). In words: BLI; isoprenaline. This is another data set of the same source.
The target of experiment [6] is T1, avi-β1AR-W (turkey β1-adrenergic …). The experiment is described as follows: BLI; salbutamol.
In experiment [7] the target is T2, avi-β1AR-E (turkey β1-adrenergic …). In words: BLI; salbutamol.
Experiment [8] has as its target T1, avi-β1AR-W (turkey β1-adrenergic …). In words: BLI; isoprenaline. The source holds these as a separate data set.
For experiment [9] the target is unchanged. In words: BLI; xamoterol.
The target in experiment [10] is T2, avi-β1AR-E (turkey β1-adrenergic …). The experiment is described as follows: BLI; xamoterol.

Where two headings read alike, the source gives them in different places.

T1 sequence (P07700 other isoform, or with tags, fused parts or gaps with the stated changes): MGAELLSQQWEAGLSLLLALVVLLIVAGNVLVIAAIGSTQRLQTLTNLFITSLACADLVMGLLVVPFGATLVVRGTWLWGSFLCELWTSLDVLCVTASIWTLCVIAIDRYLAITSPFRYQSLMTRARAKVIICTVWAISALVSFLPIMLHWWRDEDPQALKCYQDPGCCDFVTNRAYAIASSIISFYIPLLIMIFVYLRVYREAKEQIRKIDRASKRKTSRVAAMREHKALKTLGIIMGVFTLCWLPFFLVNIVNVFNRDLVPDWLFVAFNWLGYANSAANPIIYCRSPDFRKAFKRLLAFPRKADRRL
T2 sequence (P07700 other isoform, or with tags, fused parts or gaps with the stated changes): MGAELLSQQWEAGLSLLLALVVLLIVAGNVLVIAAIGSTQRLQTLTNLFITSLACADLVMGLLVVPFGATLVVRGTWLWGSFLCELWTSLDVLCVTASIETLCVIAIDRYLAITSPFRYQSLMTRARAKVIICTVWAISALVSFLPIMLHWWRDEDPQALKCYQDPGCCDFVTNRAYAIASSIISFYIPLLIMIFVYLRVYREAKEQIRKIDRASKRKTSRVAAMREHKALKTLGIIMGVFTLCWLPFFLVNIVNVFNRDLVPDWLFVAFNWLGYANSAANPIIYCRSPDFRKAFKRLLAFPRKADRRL

B1: mini-Go1 R12 (domain or fragment)
chain: IEKNLKEDGISAAKDVKLLLLGADNSGKSTIVKQMKIIHTTGIVETHFTFKNLHFRLFDVGGQRSERKKWIHCFEDVTAIIFCVDLSDYNRMHESLMLFDSICNNKFFIDTSIILFLNKKDLFGEKIKKSPLTICFPEYTGPNTYEDAAAYIQAQFESKNRSPNKEIYCHMTCATDTNNAQVIFDAVTDIIIANNLRGCGLY
For B1, binding in [1] was characterised by a dissociation constant (Kd) of 7410 nM. Further, the koff stood at 0.00941 s⁻¹ in experiment [2] and 0.00393 s⁻¹ in [3].

B2: mini-Gs/q R70 (domain or fragment)
chain: IEKQLQKDKQVYRATHRLLLLGADNSGKSTIVKQMRIYHTSGIFETKFQVDKVNFHMFDVGGQRDERRKWIQCFNDVTAIIFVVDSSDYNRLQEALNDFKSIWNNRWLRTISVILFLNKQDLLAEKVLAGKSKIEDYFPEFARYTTPEDATPEPGEDPRVTRAKYFIRDEFLRISTASGDGRHYCYPHFTCAVDTENARRIFNDCKDIILQMNLREYNLV
In the case of B2, the affinity in [1], expressed as Kd, was 534 nM. In addition, the koff in experiment [2] is 0.0067 s⁻¹; in experiment [3], 0.00343 s⁻¹.

B3: mini-Gs/i R43 with C96A (domain or fragment)
chain: IEKQLQKDKQVYRATHRLLLLGADNSGKSTIVKQMRIYHTSGIFETKFQVDKVNFHMFDVGGQRDERRKWIQAFNDVTAIIFVVDSSDYNRLQEALNDFKSIWNNRWLRTISVILFLNKQDLLAEKVLAGKSKIEDYFPEFARYTTPEDATPEPGEDPRVTRAKYFIRDEFLRISTASGDGRHYCYPHFTCAVDTENARRIFNDVTDIIIKMNLRDCGLF
B3 showed a Kd in experiment [1] of 2530 nM. In addition, the koff in experiment [2] came to 0.00623 s⁻¹; in experiment [3] it was 0.00397 s⁻¹.

B4: mini-Gs 393 with C96A (domain or fragment)
chain: GIEKQLQKDKQVYRATHRLLLLGADNSGKSTIVKQMRIYHGGSGGSGGTSGIFETKFQVDKVNFHMFDVGGQRDERRKWIQAFNDVTAIIFVVDSSDYNRLQEALNDFKSIWNNRWLRTISVILFLNKQDLLAEKVLAGKSKIEDYFPEFARYTTPEDATPEPGEDPRVTRAKYFIRDEFLRISTASGDGRHYCYPHFTCAVDTENARRIFNDCRDIIQRMHLRQYELL
Regarding B4, the koff in experiment [4] was 0.00625 s⁻¹; in [5] it was 0.00689 s⁻¹. The Kd was determined as 1460 nM in experiment [6]; 962 nM in experiment [7]; 161 nM in [8]; 2970 nM in [9]; 2360 nM in [10].

The term Kd denotes the equilibrium constant for the complex coming apart. In general, koff refers to the rate constant with which the complex falls apart.
